Measured values published in paper PMC7554302, “The Reversible Non-covalent Aggregation Into Fibers of PGLa and Magainin 2 Preserves Their Antimicrobial Activity and Synergism” (Frontiers in Cellular and Infection Microbiology, 2020).
Where no end group is shown, it is not given here.

Biological target: the molecule itself
Test: transmission electron microscopy + FTIR; negative-stain TEM of the samples fibrillated in Mueller-Hinton medium; FTIR of fibril pellets prepared in 50 mM phosphate buffer pH 7.4

B1: magainin 2a (peptide)
peptide: GIGKFLHSAKKFGKAFVGEIMNS-NH2
notes: magainin 2, antimicrobial peptide of Xenopus laevis skin secretions, cut from the magainins precursor; Forms fibrils (many copies); source: synthetic peptide (solid-phase synthesis, Fmoc chemistry; reverse phase HPLC purified)
binding result: binds
